# From US20200040057A1 (IMMATICS BIOTECHNOLOGIES, published 2020)
# Biological target: HLA-B*07 (human)
# Assay: UV peptide exchange ELISA; ++++ = yield >75%
row,Binder,peptide exchange yield [%]
1,SPGWAQTQL,> 75
2,APRLALDPDAL,> 75
3,VPLSSYVSI,> 75
4,APVVFPAL,> 75
5,MVLGIGPVL,> 75
6,MPYNSAHHCVV,> 75
7,TPISNTGVL,> 75
8,RPLDTFRVL,> 75
9,APMHIDRNIL,> 75
10,TPHGITDIL,> 75
11,LPAPLRISL,> 75
12,SPRSNPVRL,> 75
13,GPRTTQSSVL,> 75
14,APSRLLEL,> 75
15,RPFSAIAEL,> 75
16,SPYAGSTAF,> 75
17,YPLSLALHF,> 75
18,IPTSRVITL,> 75
19,LPQLKPAL,> 75
20,LPRSPPLKVL,> 75
21,VPYPSPTCV,> 75
22,IPMPRITWL,> 75
23,SPLEKINSF,> 75
24,QPRDGWPMML,> 75
25,RPKSTLMNF,> 75

row,Binder,peptide exchange yield [%]
1,LPAFSKIGGIL,> 75
2,APAKDARASL,> 75
3,APKTSFIAA,> 75
4,VPRPTSTVGLFL,> 75
5,SPRRLVELAGQSL,> 75
6,SPASRSISLL,> 75
7,SPYGSDRLVQL,> 75
8,KPRTPFTTA,> 75
9,KPRTPFTTAQL,> 75
10,RPKHFLQML,> 75
11,SPTLRQLDL,> 75
12,APQVHIFSL,> 75
13,NPASRLTAL,> 75
14,RPYGCVLRAA,> 75
15,SPSSASLTL,> 75
16,KPRNMTGLDL,> 75
17,LPRGVLEGL,> 75
18,FPQVGRTAL,> 75
19,SPSFSSTLLSL,> 75
20,SPRQPRLDF,> 75
21,GPRQVLFPL,> 75
22,SPYPGSAAF,> 75
23,RPGPQRTTSV,> 75
24,RPKTSVNLISSL,> 75
25,VPILPLNHAL,> 75

row,Binder,peptide exchange yield [%]
1,QPVKKNTL,> 75
2,APALPGQVTI,> 75
3,SPDPAHLESL,> 75
4,FPVQATIDF,> 75
5,RPPLSQRHTF,> 75
6,VPIPTHYFVVL,> 75
7,SPAPWRPWI,> 75
8,APLMPLGKTL,> 75
9,MPHLGPGILL,> 75
10,LPAPTSLVL,> 75
11,MPLLADVRL,> 75
12,LPTDLFNSVM,> 75
13,VPKSLPYVL,> 75
14,SPMEAILVSRL,> 75
15,VPRNQDWLGVSRQL,> 75
16,LPSLHVLVL,> 75
17,LPLDTRTSI,> 75
18,RPNGEVKSEL,> 75
19,APLRVHITSL,> 75
20,LPGEREAAL,> 75
21,VPKADLLTL,> 75
22,NPVPVITWYKDNRL,> 75
23,APKFISPASQL,> 75
24,APHAGGALL,> 75
25,QPSLKKIIL,> 75
